B1: FpL_C3 G21R (designed binder)
chain: ETPEEPKEEVTIKVNLIFADRKIQTAEFKGTFEEATAKAYAYANLLAKENGEYTADLEDGGNTINIKFAGHHHHHH
B2: FpL_C3 N62Y (designed binder)
chain: ETPEEPKEEVTIKVNLIFADGKIQTAEFKGTFEEATAKAYAYANLLAKENGEYTADLEDGGYTINIKFAGHHHHHH
B3: FpL_C3 N62W (designed binder)
chain: ETPEEPKEEVTIKVNLIFADGKIQTAEFKGTFEEATAKAYAYANLLAKENGEYTADLEDGGWTINIKFAGHHHHHH
B4: FpL_C3 N62H (designed binder)
chain: ETPEEPKEEVTIKVNLIFADGKIQTAEFKGTFEEATAKAYAYANLLAKENGEYTADLEDGGHTINIKFAGHHHHHH
B5: FpL_C3 N62R (designed binder)
chain: ETPEEPKEEVTIKVNLIFADGKIQTAEFKGTFEEATAKAYAYANLLAKENGEYTADLEDGGRTINIKFAGHHHHHH
B6: FpL_C3 G51V (designed binder)
chain: ETPEEPKEEVTIKVNLIFADGKIQTAEFKGTFEEATAKAYAYANLLAKENVEYTADLEDGGNTINIKFAGHHHHHH
B7: FpL_C4KR amino acid substitution mutant Lys(Arg)7Gln (designed binder)
chain: ETPEEPQEEVTIRVNLIFADGRTQTAEFRGTFEEATAEAYRYADLLARVNGEYTADLEDGGYTINIRFAGHHHHHH
B8: FpL_C4KR amino acid substitution mutant Lys(Arg)29Pro (designed binder)
chain: ETPEEPREEVTIRVNLIFADGRTQTAEFPGTFEEATAEAYRYADLLARVNGEYTADLEDGGYTINIRFAGHHHHHH
B9: FpL_C4KR amino acid substitution mutant Lys(Arg)22Thr (designed binder)
chain: ETPEEPREEVTIRVNLIFADGTTQTAEFRGTFEEATAEAYRYADLLARVNGEYTADLEDGGYTINIRFAGHHHHHH
B10: FpL_C4KR amino acid substitution mutant Lys(Arg)29Val (designed binder)
chain: ETPEEPREEVTIRVNLIFADGRTQTAEFVGTFEEATAEAYRYADLLARVNGEYTADLEDGGYTINIRFAGHHHHHH
B11: FpL_C4KR amino acid substitution mutant Lys(Arg)29Ile (designed binder)
chain: ETPEEPREEVTIRVNLIFADGRTQTAEFIGTFEEATAEAYRYADLLARVNGEYTADLEDGGYTINIRFAGHHHHHH
B12: FpL_C4KR amino acid substitution mutant Lys(Arg)13Val (designed binder)
chain: ETPEEPREEVTIVVNLIFADGRTQTAEFRGTFEEATAEAYRYADLLARVNGEYTADLEDGGYTINIRFAGHHHHHH
B13: FpL_C3KX 7e amino acid substitution mutant Glu34Asp (designed binder)
chain: ETPGESAEEVTIRVNLIFADGRIQTAEFIGTFEDATAEAYAYANLLARDYGEFTADLEDGGYTINIRFVGHHHHHH
B14: FpL_C3KX 7e amino acid substitution mutant Asn15Val (designed binder)
chain: ETPGESAEEVTIRVVLIFADGRIQTAEFIGTFEEATAEAYAYANLLARDYGEFTADLEDGGYTINIRFVGHHHHHH
B15: FpL_C3KX 7e amino acid substitution mutant Glu34Phe (designed binder)
chain: ETPGESAEEVTIRVNLIFADGRIQTAEFIGTFEFATAEAYAYANLLARDYGEFTADLEDGGYTINIRFVGHHHHHH
B16: FpL_C3KX 7e (designed binder)
chain: ETPGESAEEVTIRVNLIFADGRIQTAEFIGTFEEATAEAYAYANLLARDYGEFTADLEDGGYTINIRFVGHHHHHH
B17: FpL_C3KX 7e amino acid substitution mutant Glu34Val (designed binder)
chain: ETPGESAEEVTIRVNLIFADGRIQTAEFIGTFEVATAEAYAYANLLARDYGEFTADLEDGGYTINIRFVGHHHHHH
B18: FpL_C3KX 7e amino acid substitution mutant Glu34Leu (designed binder)
chain: ETPGESAEEVTIRVNLIFADGRIQTAEFIGTFELATAEAYAYANLLARDYGEFTADLEDGGYTINIRFVGHHHHHH
B19: FpL_C3KX 7d (designed binder)
chain: ETPGESAEEVTIRVNLIFADGRIQTAEFIGTFEEATAEAYAYANLLARDYGDFTADLEDGGYTINIRFAGHHHHHH
B20: FpL_C3KX 7d_Y53S (designed binder)
chain: ETPGESAEEVTIRVNLIFADGRIQTAEFIGTFEEATAEAYAYANLLARDYGDSTADLEDGGYTINIRFAGHHHHHH
B21: FpL_C3KX 7d_E52Y (designed binder)
chain: ETPGESAEEVTIRVNLIFADGRIQTAEFIGTFEEATAEAYAYANLLARDYGYFTADLEDGGYTINIRFAGHHHHHH
B22: FpL_C3KX 7d_G21R (designed binder)
chain: ETPGESAEEVTIRVNLIFADRRIQTAEFIGTFEEATAEAYAYANLLARDYGDFTADLEDGGYTINIRFAGHHHHHH
B23: FpL_C3KX 7d_K38L (designed binder)
chain: ETPGESAEEVTIRVNLIFADGRIQTAEFIGTFEEATALAYAYANLLARDYGDFTADLEDGGYTINIRFAGHHHHHH
B24: FpL_C3KX 7d_E33V (designed binder)
chain: ETPGESAEEVTIRVNLIFADGRIQTAEFIGTFVEATAEAYAYANLLARDYGDFTADLEDGGYTINIRFAGHHHHHH
B25: FpL_C3KX 7d_I23L (designed binder)
chain: ETPGESAEEVTIRVNLIFADGRLQTAEFIGTFEEATAEAYAYANLLARDYGDFTADLEDGGYTINIRFAGHHHHHH
B26: FpL_C3KX 7d_E8G (designed binder)
chain: ETPGESAGEVTIRVNLIFADGRIQTAEFIGTFEEATAEAYAYANLLARDYGDFTADLEDGGYTINIRFAGHHHHHH
B27: FpL_C3KX 7d_P6A (designed binder)
chain: ETPGEAAEEVTIRVNLIFADGRIQTAEFIGTFEEATAEAYAYANLLARDYGDFTADLEDGGYTINIRFAGHHHHHH
B28: FpL_C3KX 7d_K38H (designed binder)
chain: ETPGESAEEVTIRVNLIFADGRIQTAEFIGTFEEATAHAYAYANLLARDYGDFTADLEDGGYTINIRFAGHHHHHH
B29: FpL_C3KX 7d_N44R (designed binder)
chain: ETPGESAEEVTIRVNLIFADGRIQTAEFIGTFEEATAEAYAYARLLARDYGDFTADLEDGGYTINIRFAGHHHHHH
B30: FpL_C3KX 7d_N44H (designed binder)
chain: ETPGESAEEVTIRVNLIFADGRIQTAEFIGTFEEATAEAYAYAHLLARDYGDFTADLEDGGYTINIRFAGHHHHHH
B31: FpL_C3KX 7d_K48H (designed binder)
chain: ETPGESAEEVTIRVNLIFADGRIQTAEFIGTFEEATAEAYAYANLLAHDYGDFTADLEDGGYTINIRFAGHHHHHH
B32: FpL_C3KX 7d_I23F (designed binder)
chain: ETPGESAEEVTIRVNLIFADGRFQTAEFIGTFEEATAEAYAYANLLARDYGDFTADLEDGGYTINIRFAGHHHHHH
B33: FpL_C3KX 7d_E8R (designed binder)
chain: ETPGESAREVTIRVNLIFADGRIQTAEFIGTFEEATAEAYAYANLLARDYGDFTADLEDGGYTINIRFAGHHHHHH
B34: FpL_C3KX 7d_N50M (designed binder)
chain: ETPGESAEEVTIRVNLIFADGRIQTAEFIGTFEEATAEAYAYANLLARDMGDFTADLEDGGYTINIRFAGHHHHHH
B35: FpL_C3KX 9b (designed binder)
chain: ETPGESAEEVTIRVNLIFADGRRQTAEFIGTFEEATAEAYAYAHLLARDYGEFTADLEDGGYTINIRFVGHHHHHH
B36: FpL_C3KX 9a (designed binder)
chain: ETPGESAEEVTIRVNLIFADGRRQTAEFIGTFEEATAEAYAYARLLARDYGEFTADLEDGGYTINIRFVGHHHHHH
B37: FpL_C3KX 9c (designed binder)
chain: ETPGESAEEVTIRVNLIFADGRRQTAEFIGTFEEATAEAYAYANLLARDYGEFTADLEDGGYTLNIRFVGHHHHHH
B38: FpL_C3KX 10b (designed binder)
chain: ETPGESAEEVTIRVNLIFADGRRQTAEFIGTFEEATAEAYAYAHLLAHDYGEFTADLEDGGYTLNIRFVGHHHHHH
B39: FpL_C3KX 9d (designed binder)
chain: ETPGESAEEVTIRVNLIFADGRIQTAEFIGTFEEATAEAYAYARLLARDYGEFTADLEDGGYTLNIRFVGHHHHHH
B40: FpL_C3KX 9e (designed binder)
chain: ETPGESAEEVTIRVNLIFADGRIQTAEFIGTFEEATAEAYAYAHLLARDYGEFTADLEDGGYTLNIRFVGHHHHHH
B41: FpL_C3KX 10a (designed binder)
chain: ETPGESAEEVTIRVNLIFADGRRQTAEFIGTFEEATAEAYAYARLLAHDYGEFTADLEDGGYTLNIRFVGHHHHHH

Target: immunoglobulin immobilized on IgG Sepharose 6 Fast Flow (manufactured by Cytiva)
Experiment: IgG Sepharose 6 Fast Flow column; linear gradient 0.1 M citrate pH 6.5 to pH 2.2; pH at the peak of the eluted binding protein

Point of comparison: B1, Elution pH 3.4 pH. Against it:
- B2 — lower, 3 pH
- B3 — lower, 3 pH
- B4 — lower, 3 pH
- B5 — lower, 3 pH
- B6 — the same, 3.4 pH
- B7 — lower, 3 pH
- B8 — lower, 3.2 pH
- B9 — lower, 3.2 pH
- B10 — lower, 3.1 pH
- B11 — lower, 3.1 pH
- B12 — lower, 3.1 pH

Target: human antibody (gamma globulin preparation, manufactured by The Chemo-Sero-Therapeutic Research Institute) (human)
Experiment: ELISA; human gamma globulin immobilised; acid treatment 50 mM buffer pH 3.2, 25 C, 5 min; elution rate = 1 - remaining binding activity

Point of comparison: B18, Elution rate [%] 51%. Against it:
- B13 — lower, 46%
- B14 — lower, 29%
- B15 — higher, 64%
- B16 — lower, 26%
- B17 — lower, 29%

Target: human antibody (gamma globulin preparation, manufactured by The Chemo-Sero-Therapeutic Research Institute) (human)
Experiment: ELISA; human gamma globulin immobilised; acid treatment 50 mM buffer pH 3.0, 25 C, 15 min; elution rate = 1 - remaining binding activity

Point of comparison: B32, Elution rate [%] 81%. Against it:
- B19 — lower, 78%
- B20 — higher, 83%
- B21 — higher, 85%
- B22 — higher, 82%
- B23 — higher, 88%
- B24 — higher, 86%
- B25 — higher, 82%
- B26 — lower, 80%
- B27 — higher, 82%
- B28 — higher, 86%
- B29 — higher, 82%
- B30 — higher, 82%
- B31 — higher, 85%
- B33 — higher, 82%
- B34 — higher, 86%

Target: human antibody (gamma globulin preparation, manufactured by The Chemo-Sero-Therapeutic Research Institute) (human)
Experiment: ELISA; human gamma globulin immobilised; acid treatment 50 mM buffer pH 3.2, 25 C, 5 min; elution rate = 1 - remaining binding activity
Remark: another data set of the same source

Point of comparison: B39, Elution rate [%] 63%. Against it:
- B35 — higher, 68%
- B36 — higher, 70%
- B37 — higher, 69%
- B38 — higher, 67%
- B40 — higher, 68%
- B41 — higher, 75%
- B16 — lower, 46%

Source: patent publication US20250002543A1
